B1: human Hsp90α MC two-domain construct (domain or fragment)
chain: not shown
B2: human Hsp90α full-length protein with part of the charged linker between N and M removed (Hsp90Δ) (natural protein)
chain: not shown

Biological target: the molecule itself
Experiment: SEC

| Protein | stoichiometry N |
| --- | --- |
| B1 | 2 |
| B2 | 2 |
